Measured values published in paper doi:10.1101/2020.08.21.260711, “Eukaryotic translation initiation factor 5A and its hypusination play an important role in proliferation and differentiation of the human enteric protozoan parasite Entamoeba histolytica” (bioRxiv, 2020).

Target: T1, Entamoeba histolytica deoxyhypusine synthase 1 (EhDHS1) with the amino-terminal His-tag (E. histolytica, UniProt C4LXB8 1-331)
T1 sequence (looked up): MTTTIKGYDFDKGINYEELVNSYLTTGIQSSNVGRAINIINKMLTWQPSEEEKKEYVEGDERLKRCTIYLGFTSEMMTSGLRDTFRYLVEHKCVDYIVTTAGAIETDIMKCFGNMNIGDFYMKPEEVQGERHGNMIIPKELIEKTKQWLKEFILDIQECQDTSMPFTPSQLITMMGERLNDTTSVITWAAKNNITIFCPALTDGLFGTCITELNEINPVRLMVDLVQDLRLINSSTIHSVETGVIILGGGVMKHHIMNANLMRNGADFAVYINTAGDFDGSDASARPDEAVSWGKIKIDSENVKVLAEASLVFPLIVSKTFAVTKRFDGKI
Assay: cell-based or functional assay

B1: Entamoeba histolytica deoxyhypusine synthase 2 (EhDHS2) with the carboxyl-terminal S-tag (enzyme, E. histolytica, UniProt C4M2N7 1-336, looked up)
chain: MSITGEEFAKVTSKVLGESKEYKGEKCIGYDFDNGVDFNKVMEKMKYTGFQALNLGLCIEQVNEMRKNHAKIFLGMSSNIVSSGLREVIHYLVKNKFVDAIVVTAGGIEEDFIKTMHPTLLGDFYFKGKELYPNGYNRIGNLILPNSNYCEFEDWMDPLLLECLKEQNEHGVHWTPSKLVHKMGESINNESSIYYWAAKNNIPVFSPAITDGSIGDMIFFFSYKNEGLVLDLVQDVIKIDEMAFNAEKVGCLLVGAGIAKHHILNAMKRRGGCDYCAMLSTSIECDASDAGSEIAADRTKGFFKPECNPAKVIGDATILLPLIVASTFAQKEEPTK
notes: EhDHS2 gene amplified by PCR, stop codon removed, cloned into AatII-XhoI of pETDuet-EhDHS1; The stop codon was removed to fuse the gene with the C-terminal S-Tag of pETDuet; also called S-tag DHS2; EHI_006030; source: E. coli BL21 (DE3), coexpressed with EhDHS1 from pETDuet-EhDHS1/2, in lysate, then copurified on Ni2+-NTA; not shown: S-tag, C-terminal, kept
With B1 the “DHS enzymatic activity (1,3-diaminopropane production) of coexpressed EhDHS1/EhDHS2 as compared to EhDHS1 alone, with EheIF5A1 or EheIF5A2 as substrates” value was > 2000 fold.
